From patent publication US20200109188A1
Numbering of substitutions follows the chain as printed.

B1: Antibody 10 (antibody, V domains shown)
VH: QVQLQQSGPGLVKPSQTLSLTCAISGDSVSSNSATWNWIRQSPSRGLEWLGRTYYRSKWYNDYADFLKRRITINPDTSNNEVSLRLTSVTPDDTALYYCARGGHITVFGVNIDAFDVWGQGTMVTVSS
VL: DIQMTQSPSSLSASVGDRITISCRTSQSLRSYLHWYQQKPGKAPKLLIYASSTLQSGVPSRFSGSGSGTDFTLTISNLQPEDFATYYCQLSRTFGQGTKVEIK
B2: Antibody 5 (antibody, V domains shown)
VH: QVQLQQSGPGLVKPSQTLSLTCAISGDRVSSNSAVWNWIRQSPSRGLEWLGRTYYRSKWYYDYAESVKSRIVIDPDTSKNQVSLQLNSVTPEDSAIYYCARGGHITVFGLNIDAYDIWGQGAMVTVSS
VL: DIQMTQSPSSLSASVGDRVTISCRAQSLSSYLHWYQQKPGQPPKLLIYAATTLQSGVPSRFSGSGSGTDFTLTISTFQAEDVATYYCQQSRTFGQGTKVEIK
B3: Antibody 6 (antibody, V domains shown)
VH: B2 VH with V107E
VL: B2 VL
B4: Antibody 8 (antibody, V domains shown)
VH: QVQLQQSGPGLVKPSQTLSLTCVISGDTVSSNRATWNWMRQSPLRGLEWLGRTYYRSKWYNDYAVSVKSRVVINPDTSKNQVSLQLNTVTPDDSGVYFCARGGHITVFGVNIDAFDIWGLGTKVTVSS
VL: DIQMTQSPSSLSASVGDRVTISCRASQRLNSYLHWYQQTPGQAPKLLIYATSTLQSGVSPRFSGSGSGTDFTLTISSLQPEDVATYYCQLSRTFGHGTKVEIK

biological target: recombinant HA subtype H3 (A/Perth/16/09 (H3N2)) (influenza A virus); assay: ELISA, rHA coated

First: B1
Second: B2
The EC50 of the first is 1.6-fold higher: 0.049 µg/mL for the first, 0.03 µg/mL for the second.

B3 and B4 are within 1.5-fold of each other in EC50: 0.064 µg/mL for the first, 0.067 µg/mL for the second.

biological target: recombinant HA subtype H9 (A/chicken/HK/G9/97 (H9N2)) (influenza A virus); assay: ELISA, rHA coated

Going from B1 to B2, the EC50 rises from 2.7 µg/mL to over 6 µg/mL.

B3 and B4 cannot be ordered by EC50: over 6 µg/mL for the first, over 6 µg/mL for the second.

biological target: recombinant HA subtype H6 (A/teal/HK/W312/97 (H6N1)) (influenza A virus); assay: ELISA, rHA coated

Going from B1 to B2, the EC50 falls from 0.097 µg/mL to 0.047 µg/mL (2.1-fold).

First: B3
Second: B4
The EC50 of the first is 2.4-fold higher: 0.214 µg/mL for the first, 0.091 µg/mL for the second.

biological target: recombinant HA subtype H5 (A/Vietnam/1203/04 (H5N1)) (influenza A virus); assay: ELISA, rHA coated

B1 and B2 are within 1.5-fold of each other in EC50: 0.058 µg/mL for the first, 0.041 µg/mL for the second.

Going from B3 to B4, the EC50 falls from 0.256 µg/mL to 0.044 µg/mL (5.8-fold).

biological target: recombinant HA subtype H2 (A/Swine/MO/06 (H2N3)) (influenza A virus); assay: ELISA, rHA coated

Going from B1 to B2, the EC50 falls from 0.075 µg/mL to 0.048 µg/mL (1.6-fold).

First: B3
Second: B4
The EC50 of the first is 3.7-fold higher: 0.213 µg/mL for the first, 0.058 µg/mL for the second.

biological target: recombinant HA subtype H7 (A/Netherlands/219/03 (H7N7)) (influenza A virus); assay: ELISA, rHA coated

B1 and B2 are within 1.5-fold of each other in EC50: 0.034 µg/mL for the first, 0.024 µg/mL for the second.

Going from B3 to B4, the EC50 falls from 0.116 µg/mL to 0.015 µg/mL (7.7-fold).
